In the supplement of paper PMC11136658:

Test system: peptide library, one residue held at a place counted from the Y acceptor
Experiment: relative phosphorylation of the sub-library (ratio to the mean residue at this position); higher = residue favoured
How it was run: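 Each value expresses phosphorylation relative to the mean randomized residue. Purified recombinant kinases acted for 90 min in 384-well plates on biotinylated Tyr-centred peptide library mixtures, with one residue fixed at one position from −5 to +5, in the presence of 50 μM ATP with γ-32P-ATP. Signals were read by phosphorimaging after capture on streptavidin membranes, then normalized per position to the sum of the 18 randomized residues (16 in the Ser/Thr-free library) and multiplied by that number.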

Chain of LTK, construct: aa450-end, human (P29376 450-864, looked up): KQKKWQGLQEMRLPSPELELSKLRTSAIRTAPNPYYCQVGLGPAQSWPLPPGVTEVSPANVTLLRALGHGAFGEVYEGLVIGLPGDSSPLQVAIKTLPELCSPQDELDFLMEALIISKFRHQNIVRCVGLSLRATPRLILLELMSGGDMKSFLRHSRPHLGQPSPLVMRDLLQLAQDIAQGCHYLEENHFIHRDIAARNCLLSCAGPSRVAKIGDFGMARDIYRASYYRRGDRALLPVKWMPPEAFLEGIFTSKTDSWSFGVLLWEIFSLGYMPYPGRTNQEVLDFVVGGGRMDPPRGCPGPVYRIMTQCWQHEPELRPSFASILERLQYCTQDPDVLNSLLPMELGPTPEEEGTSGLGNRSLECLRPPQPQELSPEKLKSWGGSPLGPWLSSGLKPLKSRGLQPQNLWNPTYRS

LIMK2, construct: Full length, human (from UniProt P53671)
relative phosphorylation
Conditions | at +1 | at +2 | at +3 | at +4 | at +5 | at -1 | at -2 | at -3 | at -4 | at -5
A fixed | 0.976 | 0.966 | 1.08 | 1.3 | 0.842 | 1.01 | 0.854 | 1.04 | 1.16 | 1.03
D fixed | 0.585 | 0.603 | 0.651 | 0.577 | 0.528 | 0.594 | 0.554 | 0.548 | 0.717 | 0.683
E fixed | 0.556 | 0.664 | 0.635 | 0.693 | 0.554 | 0.615 | 0.56 | 0.529 | 0.643 | 0.723
F fixed | 0.891 | 1.1 | 0.986 | 0.945 | 0.84 | 0.819 | 0.936 | 0.877 | 0.858 | 0.92
G fixed | 0.979 | 1.06 | 1.1 | 1.48 | 1.07 | 1.08 | 1.08 | 1.24 | 1.27 | 1.05
H fixed | 1.33 | 1.11 | 1.25 | 1.39 | 1.13 | 1.05 | 1.18 | 1.14 | 0.993 | 1.13
I fixed | 0.695 | 0.788 | 0.744 | 0.691 | 0.53 | 0.782 | 0.82 | 0.632 | 0.691 | 0.818
K fixed | 1.65 | 1.47 | 1.31 | 1.43 | 1.73 | 1.54 | 1.51 | 1.6 | 1.46 | 1.46
L fixed | 0.739 | 0.931 | 0.795 | 0.891 | 0.749 | 0.896 | 0.86 | 0.865 | 0.815 | 0.849
M fixed | 0.822 | 1.01 | 1.1 | 0.899 | 0.75 | 0.922 | 0.857 | 0.669 | 0.79 | 0.744
N fixed | 0.958 | 0.851 | 0.879 | 0.724 | 1.07 | 1.1 | 1.07 | 1.09 | 0.928 | 0.852
P fixed | 1.23 | 1.31 | 1.33 | 1.4 | 1.13 | 1.28 | 1.26 | 1.33 | 1.19 | 1.15
Q fixed | 1.05 | 0.775 | 0.831 | 0.66 | 1.12 | 0.944 | 0.911 | 1.13 | 0.988 | 0.893
R fixed | 1.79 | 1.28 | 1.3 | 1.19 | 2 | 1.65 | 1.6 | 1.59 | 1.55 | 1.52
V fixed | 0.647 | 0.84 | 0.78 | 0.713 | 0.689 | 0.715 | 0.887 | 0.765 | 0.783 | 0.774
W fixed | 1.1 | 1.23 | 1.22 | 1.02 | 1.28 | 0.986 | 1.05 | 0.96 | 1.16 | 1.4
pThr fixed | 0.62 | 0.618 | 0.541 | 0.618 | 0.406 | 0.623 | 0.566 | 0.539 | 0.717 | 0.671
pTyr fixed | 0.617 | 0.693 | 0.604 | 0.497 | 0.519 | 0.868 | 0.658 | 0.599 | 0.627 | 0.759

LTK, construct: aa450-end, human (from UniProt P29376)
relative phosphorylation
Conditions | at +1 | at +2 | at +3 | at +4 | at +5 | at -1 | at -2 | at -3 | at -4 | at -5
A fixed | 2.49 | 0.74 | 0.654 | 0.78 | 0.895 | 0.879 | 1.07 | 0.891 | 1.26 | 1.05
D fixed | 0.526 | 0.697 | 0.327 | 0.862 | 0.716 | 1.28 | 0.86 | 1.09 | 0.982 | 1.02
E fixed | 1.34 | 0.934 | 0.278 | 0.952 | 0.642 | 0.877 | 0.963 | 1.49 | 1.21 | 0.905
F fixed | 0.908 | 1.31 | 2.08 | 1.11 | 1.37 | 0.992 | 0.711 | 1.03 | 1.05 | 1.01
G fixed | 0.74 | 0.404 | 0.61 | 0.982 | 1.12 | 0.345 | 1.17 | 0.983 | 1.19 | 1.19
H fixed | 0.848 | 0.806 | 0.808 | 1.11 | 0.914 | 1.12 | 1.08 | 0.947 | 0.883 | 0.961
I fixed | 1.23 | 1.1 | 2.95 | 0.875 | 1 | 2.47 | 1.01 | 0.705 | 0.762 | 0.839
K fixed | 0.402 | 0.708 | 0.361 | 1.1 | 0.949 | 0.377 | 1.09 | 1.09 | 1.05 | 1.23
L fixed | 1.07 | 1.41 | 1.38 | 0.85 | 1.04 | 2.06 | 0.934 | 0.916 | 1.01 | 0.999
M fixed | 1.82 | 1.19 | 1.82 | 1.07 | 0.968 | 0.982 | 0.882 | 0.886 | 0.878 | 0.844
N fixed | 0.476 | 0.908 | 0.445 | 0.822 | 0.855 | 1.27 | 0.986 | 1.18 | 0.858 | 1.17
P fixed | 0.18 | 0.683 | 0.671 | 1.02 | 1.65 | 0.835 | 1.04 | 0.968 | 1.2 | 1.14
Q fixed | 1.21 | 0.834 | 0.468 | 1.18 | 0.763 | 0.576 | 1.07 | 0.923 | 1.1 | 0.987
R fixed | 0.564 | 1.21 | 0.453 | 1.28 | 1.19 | 0.372 | 1.35 | 1.29 | 1.51 | 1.32
S fixed | 1.02 | 0.654 | 0.547 | 0.916 | 0.916 | 0.477 | 1.07 | 1 | 0.679 | 0.831
T fixed | 0.833 | 0.609 | 0.786 | 0.851 | 1.07 | 0.866 | 1.09 | 0.91 | 0.602 | 0.703
V fixed | 1.27 | 1.1 | 2.09 | 0.854 | 0.806 | 1.68 | 0.894 | 0.757 | 0.735 | 0.815
W fixed | 1.07 | 2.71 | 1.27 | 1.37 | 1.14 | 0.536 | 0.731 | 0.943 | 1.04 | 0.993
pThr fixed | 0.903 | 0.538 | 0.284 | 0.676 | 0.557 | 0.691 | 0.702 | 0.79 | 0.885 | 0.891
pTyr fixed | 1.46 | 2.37 | 0.533 | 1.29 | 0.546 | 4.33 | 1.16 | 1.12 | 1.11 | 1.06
